B1: Leucine-rich repeat transmembrane neuronal protein 2 (Homo sapiens), O43300 (parent)
chain: MGLHFKWPLGAPMLAAIYAMSMVLKMLPALGMACPPKCRCEKLLFYCDSQGFHSVPNATDKGSLGLSLRHNHITELERDQFASFSQLTWLHLDHNQISTVKEDAFQGLYKLKELILSSNKIFYLPNTTFTQLINLQNLDLSFNQLSSLHPELFYGLRKLQTLHLRSNSLRTIPVRLFWDCRSLEFLDLSTNRLRSLARNGFAGLIKLRELHLEHNQLTKINFAHFLRLSSLHTLFLQWNKISNLTCGMEWTWGTLEKLDLTGNEIKAIDLTVFETMPNLKILLMDNNKLNSLDSKILNSLRSLTTVGLSGNLWECSARICALASWLGSFQGRWEHSILCHSPDHTQGEDILDAVHGFQLCWNLSTTVTVMATTYRDPTTEYTKRISSSSYHVGDKEIPTTAGIAVTTEEHFPEPDNAIFTQRVITGTMALLFSFFFIIFIVFISRKCCPPTLRRIRQCSMVQNHRQLRSQTRLHMSNMSDQGPYNEYEPTHEGPFIIINGYGQCKCQQLPYKECEV

Variants of: B1
Settings: with NRXN1, P58400-1
Chain of NRXN1, P58400-1 (P58400 other isoform, or with tags, fused parts or gaps): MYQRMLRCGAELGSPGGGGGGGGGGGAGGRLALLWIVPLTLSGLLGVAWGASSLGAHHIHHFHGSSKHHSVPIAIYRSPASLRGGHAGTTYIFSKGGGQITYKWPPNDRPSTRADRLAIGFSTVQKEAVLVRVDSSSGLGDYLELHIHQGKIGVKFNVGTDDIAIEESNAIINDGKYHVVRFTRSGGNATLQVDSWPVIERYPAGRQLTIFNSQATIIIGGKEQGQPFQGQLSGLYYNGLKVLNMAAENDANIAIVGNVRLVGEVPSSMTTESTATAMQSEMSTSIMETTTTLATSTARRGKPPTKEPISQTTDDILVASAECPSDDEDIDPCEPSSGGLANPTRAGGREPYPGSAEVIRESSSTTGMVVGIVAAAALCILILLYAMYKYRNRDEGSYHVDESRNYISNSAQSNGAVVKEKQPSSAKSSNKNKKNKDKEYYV

Row | Variant | effect of a mutation on the interaction
1 | MGLHFKWPLGAPMLAAIYAMSMVLKMLPALGMACPPKCRCEKLLFYCDSQGFHSVPNATDKGSLGLSLRHNHITELERDQFASFSQLTWLHLDHNQISTVKEDAFQGLYKLKELILSSNKIFYLPNTTFTQLINLQNLDLSFNQLSSLHPELFYGLRKLQTLHLRSNSLRTIPVRLFWDCRSLEFLDLSTNRLRSLARNGFAGLIKLRELHLEHNQLTKINFAHFLRLSSLHTLFLQWNKISNLTCGMEWTWGTLEKLDLTGNEIKAIDLTVFETMPNLKILLMDNNKLNSLDSKILNSLRSLTTVGLSGNLWECSARICALASWLGSFQGRWEHSILCHSPDHTQGQDILDAVHGFQLCWNLSTTVTVMATTYRDPTTEYTKRISSSSYHVGDKEIPTTAGIAVTTEEHFPEPDNAIFTQRVITGTMALLFSFFFIIFIVFISRKCCPPTLRRIRQCSMVQNHRQLRSQTRLHMSNMSDQGPYNEYEPTHEGPFIIINGYGQCKCQQLPYKECEV [E348Q] | disrupting interaction strength
2 | MGLHFKWPLGAPMLAAIYAMSMVLKMLPALGMACPPKCRCEKLLFYCDSQGFHSVPNATDKGSLGLSLRHNHITELERDQFASFSQLTWLHLDHNQISTVKEDAFQGLYKLKELILSSNKIFYLPNTTFTQLINLQNLDLSFNQLSSLHPELFYGLRKLQTLHLRSNSLRTIPVRLFWDCRSLEFLDLSTNRLRSLARNGFAGLIKLRELHLEHNQLTKINFAHFLRLSSLHTLFLQWNKISNLTCGMEWTWGTLEKLDLTGNEIKAIDLTVFETMPNLKILLMDNNKLNSLDSKILNSLRSLTTVGLSGNLWECSARICALASWLGSFQGRWEHSILCHSPDHTQGEDILDAVHGAQLCWNLSTTVTVMATTYRDPTTEYTKRISSSSYHVGDKEIPTTAGIAVTTEEHFPEPDNAIFTQRVITGTMALLFSFFFIIFIVFISRKCCPPTLRRIRQCSMVQNHRQLRSQTRLHMSNMSDQGPYNEYEPTHEGPFIIINGYGQCKCQQLPYKECEV [F357A] | decreasing interaction strength

Now from value to variant:

Row | effect of a mutation on the interaction | Variant
3 | with no effect | MGLHFKWPLGAPMLAAIYAMSMVLKMLPALGMACPPKCRCEKLLFYCDSQGFHSVPNATDKGSLGLSLRHNHITELERDQFASFSQLTWLHLDHNQISTVKEDAFQGLYKLKELILSSNKIFYLPNTTFTQLINLQNLDLSFNQLSSLHPELFYGLRKLQTLHLRSNSLRTIPVRLFWDCRSLEFLDLSTNRLRSLARNGFAGLIKLRELHLEHNQLTKINFAHFLRLSSLHTLFLQWNKISNLTCGMEWTWGTLEKLDLTGNEIKAIDLTVFETMPNLKILLMDNNKLNSLDSKILNSLRSLTTVGLSGNLWECSARICALASWLGSFQGRWEHSILCHSPDHTQGEDILDAVAGFQLCWNLSTTVTVMATTYRDPTTEYTKRISSSSYHVGDKEIPTTAGIAVTTEEHFPEPDNAIFTQRVITGTMALLFSFFFIIFIVFISRKCCPPTLRRIRQCSMVQNHRQLRSQTRLHMSNMSDQGPYNEYEPTHEGPFIIINGYGQCKCQQLPYKECEV [H355A]
4 | decreasing interaction strength | MGLHFKWPLGAPMLAAIYAMSMVLKMLPALGMACPPKCRCEKLLFYCDSQGFHSVPNATDKGSLGLSLRHNHITELERDQFASFSQLTWLHLDHNQISTVKEDAFQGLYKLKELILSSNKIFYLPNTTFTQLINLQNLDLSFNQLSSLHPELFYGLRKLQTLHLRSNSLRTIPVRLFWDCRSLEFLDLSTNRLRSLARNGFAGLIKLRELHLEHNQLTKINFAHFLRLSSLHTLFLQWNKISNLTCGMEWTWGTLEKLDLTGNEIKAIDLTVFETMPNLKILLMDNNKLNSLDSKILNSLRSLTTVGLSGNLWECSARICALASWLGSFQGRWEHSILCHSPDHTQGEDILAAVHGFQLCWNLSTTVTVMATTYRDPTTEYTKRISSSSYHVGDKEIPTTAGIAVTTEEHFPEPDNAIFTQRVITGTMALLFSFFFIIFIVFISRKCCPPTLRRIRQCSMVQNHRQLRSQTRLHMSNMSDQGPYNEYEPTHEGPFIIINGYGQCKCQQLPYKECEV [D352A]
5 | disrupting interaction strength | MGLHFKWPLGAPMLAAIYAMSMVLKMLPALGMACPPKCRCEKLLFYCDSQGFHSVPNATDKGSLGLSLRHNHITELERDQFASFSQLTWLHLDHNQISTVKEDAFQGLYKLKELILSSNKIFYLPNTTFTQLINLQNLDLSFNQLSSLHPELFYGLRKLQTLHLRSNSLRTIPVRLFWDCRSLEFLDLSTNRLRSLARNGFAGLIKLAELHLEHNQLTKINFAHFLRLSSLHTLFLQWNKISNLTCGMEWTWGTLEKLDLTGNEIKAIDLTVFETMPNLKILLMDNNKLNSLDSKILNSLRSLTTVGLSGNLWECSARICALASWLGSFQGRWEHSILCHSPDHTQGEDILDAVHGFQLCWNLSTTVTVMATTYRDPTTEYTKRISSSSYHVGDKEIPTTAGIAVTTEEHFPEPDNAIFTQRVITGTMALLFSFFFIIFIVFISRKCCPPTLRRIRQCSMVQNHRQLRSQTRLHMSNMSDQGPYNEYEPTHEGPFIIINGYGQCKCQQLPYKECEV [R208A]
